According to patent publication US20100210517A1 (RAPTOR PHARMACEUTICAL, published 2010):

Key:
[1] = target: T1, LRP2 CR89 V1047D (human, UniProt P98164 1022-1105); assay: solid-phase assay; OD at the highest ligand concentration as percent of the highest OD of all ligands
T1 construct: also called YDWR
T1 sequence: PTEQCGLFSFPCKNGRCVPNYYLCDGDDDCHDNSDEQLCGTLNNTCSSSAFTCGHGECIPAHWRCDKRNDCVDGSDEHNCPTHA
Protocol: (§1) Solid phase binding assays-Purified, refolded CR protein (1 μg) was bound to Nunc Maxisorp™ 96-well plates in TBS pH 8 supplemented with 5 mM CaCl₂ (TBSC) overnight at 4° C. Wells were washed with TBSC and then blocked with TBSC containing 2% bovine serum albumin (BSA). […] Control wells contained no added ligand. As an additional control, to determine whether the absence of calcium affected binding, 10 mM EGTA was included in the incubation medium for some samples. […] Excess primary antibody was removed and wells washed before incubation with the secondary antibody, HRP-conjugated goat anti rabbit IgG (Bio-Rad). After washing, TMB substrate solutions (Bio-Rad) were added to detect HRP. Color development was stopped with 1N HCl. Absorption at 450 nm was measured with a microplate spectrophotometer (Molecular Devices). Data were plotted and Kd values derived by non-linear regression with the assumption of single-site binding (GraphPad Prism).
(§2) To test this idea, mutant LRP2 CR89 were prepared in which the native, non-canonical residues at these positions were sequentially substituted with the non-native, canonical residues. As defined above, the A, C, A′, C′ string for LRP2 CR89 is YVWR. Mutants included LRP2 CR89 Y1042W (WVWR), LRP2 CR89 V1047D (YDWR), LRP2 CR89 R1088D (YVWD), LRP2 CR89 V1047D R1088D (YDWD), LRP2 CR89 Y1042W V1047D R1088D (WDWD), LRP2 CR89 Y1042W V1047D (WDWR), LRP2 CR89 Y1042W R1088D (WVWD).

[2] = target: T2, LRP2 CR89 (human, UniProt P98164 1025-1102); assay: as above
T2 construct: domain: CR89; also called YVWR; L2 CR89; not shown: N-terminal hexahistidine and S-peptide tags of pET30(+)a
T2 sequence (P98164 1025-1102): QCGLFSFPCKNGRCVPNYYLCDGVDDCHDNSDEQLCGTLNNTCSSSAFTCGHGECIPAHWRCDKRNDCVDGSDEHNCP
Protocol: as §1, §2

[3] = target: T3, LRP2 CR89 Y1042W R1088D (human, UniProt P98164 1022-1105); assay: as above
T3 construct: also called WVWD
T3 chain: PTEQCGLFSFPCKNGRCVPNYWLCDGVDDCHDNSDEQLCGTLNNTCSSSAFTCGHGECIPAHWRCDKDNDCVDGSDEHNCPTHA
Protocol: as §1, §2

[4] = target: T4, LRP2 CR89 Y1042W V1047D R1088D (human, UniProt P98164 1022-1105); assay: as above
T4 construct: also called WDWD
T4 chain: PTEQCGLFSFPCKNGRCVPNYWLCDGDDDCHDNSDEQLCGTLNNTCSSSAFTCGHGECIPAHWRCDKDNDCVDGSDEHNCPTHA
Protocol: as §1, §2

[5] = target: T5, LRP2 CR89 Y1042W V1047D (human, UniProt P98164 1022-1105); assay: as above
T5 construct: also called WDWR
T5 chain: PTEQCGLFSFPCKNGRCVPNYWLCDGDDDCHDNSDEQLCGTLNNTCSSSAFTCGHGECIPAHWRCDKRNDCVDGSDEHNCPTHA
Protocol: as §1, §2

[6] = target: T6, LRP2 CR89 V1047D R1088D (human, UniProt P98164 1022-1105); assay: as above
T6 construct: also called YDWD
T6 sequence: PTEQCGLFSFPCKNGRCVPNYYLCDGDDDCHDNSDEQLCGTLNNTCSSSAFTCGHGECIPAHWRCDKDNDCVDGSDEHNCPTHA
Protocol: as §1, §2

[7] = target: T7, LRP2 CR89 R1088D (human, UniProt P98164 1022-1105); assay: as above
T7 construct: also called YVWD
Protocol: as §1, §2

[8] = target: T2, LRP2 CR89; assay: solid-phase assay on coated CR protein, single-site non-linear fit
Protocol: as §1

[9] = target: T7, LRP2 CR89 R1088D; assay: as above
Protocol: as §1

[10] = target: T2, LRP2 CR89; assay: solid-phase assay; OD at the highest ligand concentration as percent of the highest OD of all ligands; remark: listed apart in the source
Protocol: as §1

[11] = target: T8, LRP1 CR3-5 (human); assay: as above
T8 construct: range 852-973; also called L1 CR3-5
T8 sequence (Q07954 852-973): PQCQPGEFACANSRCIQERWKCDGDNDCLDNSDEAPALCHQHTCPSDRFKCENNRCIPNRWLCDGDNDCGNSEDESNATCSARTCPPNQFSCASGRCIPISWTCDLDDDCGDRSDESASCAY
Protocol: as §1

[12] = target: T1, LRP2 CR89 V1047D; assay: solid-phase assay on coated CR protein, anti-RAP detection, A450
Protocol: as §1, §2

[13] = target: T3, LRP2 CR89 Y1042W R1088D; assay: as above
Protocol: as §1, §2

[14] = target: T4, LRP2 CR89 Y1042W V1047D R1088D; assay: as above
Protocol: as §1, §2

[15] = target: T2, LRP2 CR89; assay: solid-phase assay on coated CR protein, single-site non-linear fit; remark: listed apart in the source
Protocol: Data were plotted and fitted by non-linear regression with the assumption of a single binding site (GraphPad Prism). Kd values with standard deviations were derived from the regression analysis.
as §1

[16] = target: T2, LRP2 CR89; assay: apparent Kd of the variant for the CR pair used in selection; no unit printed in Table 4, nM per Table 2 and paragraph 292

B1: MegaRAP1 d3 (ligand)
chain: LDRLRRVSHQGYTTEAKFEEPRVIDLWDLAQSANLTDKELEAFREELKYFKAKIEAHNHYQKQLEIAHEELRHAESVGDGERVSRSREKHALLEGRTKELGYTVKKHLQDLSGRISRAR
notes: V175L lies outside the d3 construct; also called RAPv2A d3; RAP v2 d3; not shown: N-terminal hexahistidine and S-peptide tags of pET30(+)a
% max bind [1]: 11% | % max bind [2]: 100% | % max bind [3]: 4% | % max bind [4]: 1% | % max bind [5]: 3% | % max bind [6]: 3% | % max bind [7]: 55% | Kd [8]: 33 nM | Kd [9]: 78 nM | % max [10]: 88% | % max [11]: 4% | binding result [12]: no binding (tested: 100 nM) | binding result [13]: no binding (tested: 100 nM) | binding result [14]: no binding (tested: 100 nM) | Kd [15]: 38 nM | Kd [16]: 38 nM
